This is an account of results in patent US20200190204A1.

The experiment addresses hBAFF-R-GFP fusion protein on mouse fibroblast L cells (clone D2C) (human) (UniProt Q96RJ3). Description: flow cytometry on BAFF-R-expressing D2C L cells, 0.5 µg recombinant BAFF/10^6 cells, anti-BAFF-PE; unstained cells 0.0217; in the signal plot the 0 ng trace peaks between 10^2 and 10^3, the unstained one at about 10^2.

On to “recombinant BAFF ligand (from UniProt Q9Y275 134-285)”, for which the gate number, percent of cells above the BAFF-PE line (no % sign printed) was found to be 59.6%.
